Results reported in article PMC4208029 (Scientific Reports, 2014).

Target: T1, human full-length glucose transporter GLUT-1 (human, UniProt P11166 1-492)
T1 sequence (looked up): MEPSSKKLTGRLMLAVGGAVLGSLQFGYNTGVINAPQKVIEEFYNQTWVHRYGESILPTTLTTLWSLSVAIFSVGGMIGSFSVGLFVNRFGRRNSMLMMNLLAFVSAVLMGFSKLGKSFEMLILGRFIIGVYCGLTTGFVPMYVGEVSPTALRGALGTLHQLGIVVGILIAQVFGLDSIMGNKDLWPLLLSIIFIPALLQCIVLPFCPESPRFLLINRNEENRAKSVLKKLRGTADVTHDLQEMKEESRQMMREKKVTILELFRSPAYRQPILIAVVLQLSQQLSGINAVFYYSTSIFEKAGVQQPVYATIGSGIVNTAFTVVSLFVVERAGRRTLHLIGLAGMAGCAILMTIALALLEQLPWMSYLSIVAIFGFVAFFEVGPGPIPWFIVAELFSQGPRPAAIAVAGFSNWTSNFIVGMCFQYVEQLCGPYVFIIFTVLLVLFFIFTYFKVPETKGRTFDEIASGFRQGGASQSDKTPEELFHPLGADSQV
Assay: SPR

B1: Nb-GLUT-1 (VHH)
VHH: QVQLLESGGGLVQPGGSLRLSCAASGFTFSSYAMSWVRQAPGKGLEWVSTITAKGRQTYYADSVKGRFTISRDNSKNTLYLQMNSLRAEDTAVYYCATGPMYQPQFGSWGQGTLVTVSS
What does the source list for B1?
Kd: 22.3 nM; koff: 0.0016 s⁻¹; kon: 120000 M⁻¹ s⁻¹
